The record followed here is the RNAGym collection of RNA variant scans (doi:10.1093/molbev/msab373).

B1: Azoarcus group I ribozyme (parent)
chain: GUGCCUUGCGCCGGGAAACCACGCAAGGGAUGGUGUCAAAUUCGGCGAAACCUAAGCGCCCGCCCGGGCGUAUGGCAACGCCGAGCCAAGCUUCGGCGCCUGCGCCGAUGAAGGUGUAGAGACUAGACGGCACCCACCUAAGGCAAACGCUAUGGUGAAGGCAUAGUCCAGGGAGUGGCGAAAGUCACACAAACCGG

This data set covers variants of B1. Description: reverse-splicing fitness (ratio to wild type); higher = more active; in vitro selection; Mg2+ level not given. The essentials:
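An in vitro group I ribozyme library with randomized positions was T7-transcribed and gel-purified. In triplicate, 10 pmol RNA in EPPS pH 7.5 was reacted with 50 pmoles of a 30-nt RNA substrate for 1 h at 37 °C across several added MgCl2 levels (1–48 mM), then stopped with EDTA. Products were reverse transcribed from a substrate-complementary primer, PCR-amplified and sequenced (HiSeq 4000). Fitness is a variant's read proportion after selection over that before, normalised to wild type.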
For C82A A145U C150G C169U U176G, the reverse-splicing fitness turned out to be 0.00595. Turning to C82A A120C A145C C150G C169U U176A, the reverse-splicing fitness stood at 0.00681. In the case of A111U A120U A145C C150G U176C, the reverse-splicing fitness was determined as 0.0148.

For the variant C82G A111G A120U A145C C150G U176G, the reverse-splicing fitness stood at 0.00247. Consider A111U A120U C150A U176C, for which the reverse-splicing fitness was 0.0318.

With C82U A120U C150U C169A U176A, the reverse-splicing fitness was 0.00329.

In the case of C82G A111G A120U A145G C150A C169A U176C, the reverse-splicing fitness was 0.00503. As for C82U A120C C150A C169A, the reverse-splicing fitness stood at 0.00872. Under C82U A111C A120U A145G C150U C169G U176C stands 0.00346. For C82A A145C C150U C169G U176G, the reverse-splicing fitness was 0.00628.

For the variant C82G A111U A145G C150U C169A U176C, the reverse-splicing fitness was determined as 0.0164.

As to C82U A111G A120G A145C U176A, the reverse-splicing fitness turned out to be 0.0105.

On to C82U A145C C150U C169U, for which the reverse-splicing fitness was 0.00874. Then C82G A111G C150A C169G U176A, with 0.0217. In the case of C82G A111U A120G C169U U176G, the reverse-splicing fitness is 0.00589. C82G A120U A145G C169U U176G: the reverse-splicing fitness is 0.00154. As for A111C A120C A145U C169A U176C, the reverse-splicing fitness stood at 0.0102.

Regarding C82G A120U A145U, the reverse-splicing fitness is 0.23. Under A111U A120C A145G C150A C169A stands 0.0121; under C82U A111U A120G C169U, 0.0086; under A120C A145U C150U C169G, 0.0196. Under A145C C169G U176C stands 0.116; under C82U A111U A120G A145C C150A C169G U176G, 0.00478. On to A111C A120C A145C C150A C169A U176A, for which the reverse-splicing fitness was 0.0152. Under C82G A111G A120G C150G C169U stands 0.0094; under C82A A111U A120G A145U C150U C169G, 0.0104. Then A111C A120C C150A C169A U176C, with 0.0141; and A111C A120U C150A C169A U176C, with 0.00383; and C82G A111U A120C C169G U176G, with 0.00577. Then C82U A111G A120U C150G C169U U176C, with 0.00396; and A111U C169G U176G, with 0.00596; and A120C A145G C150A C169A U176G, with 0.00483. As for C82G A111G A120C A145C C150U C169G, the reverse-splicing fitness turned out to be 0.00849. Then A111U A120G A145G C150A, with 0.0285; and A111U A120G A145G C150G, with 0.0235; and C82U A111G A145C C150U C169G U176G, with 0.00565. As to C82G A111G A120U C169A U176A, the reverse-splicing fitness stood at 0.00371. Under C82A A111U A120U C150G C169U U176C stands 0.00451; under A111C A120G A145U C169G U176A, 0.0277; under A111C A120G A145U C169G U176G, 0.00448. Under C82G A120C A145G U176G stands 0.0158. Under A111G A145U C150U C169U U176C stands 0.056. Take A111C A145U C150A C169A U176G: the reverse-splicing fitness was 0.00755. Regarding C82U A111C A120U A145G C150A C169G U176G, the reverse-splicing fitness amounted to 0.00246. Turning to C82G A111U A120G A145C C150A C169G U176A, the reverse-splicing fitness is 0.0229. For C82G A111U C150G U176G, the reverse-splicing fitness came out at 0.0043.

In the case of A145U C150A C169A U176G, the reverse-splicing fitness amounted to 0.00528. Then C82U A111U A120G C150U C169G U176C, with 0.0168; and A111G A120U A145U C150U C169A U176G, with 0.00175; and C82G A120G A145C C150A C169U U176G, with 0.00463. Turning to C82G A111U A120U A145U C150U U176A, the reverse-splicing fitness is 0.00894.

As to C82A A111U A145G C150A U176C, the reverse-splicing fitness stood at 0.0448. Then C82U A111U A145C C150A C169G U176A, with 0.0228.

Regarding C82U A111G A145U C150A U176C, the reverse-splicing fitness came out at 0.0305.

Consider A111U U176G, for which the reverse-splicing fitness is 0.288. For C82U A111G A120U A145G C150G C169G U176C, the reverse-splicing fitness was found to be 0.00401.

In the case of C82G A111G A145C C150A C169A U176G, the reverse-splicing fitness is 0.00663.

Regarding A111C A120G A145C C150U U176A, the reverse-splicing fitness is 0.0163. With A111C A120G A145C C150U U176G, the reverse-splicing fitness turned out to be 0.00427. Take C82U A111G A120G C150G U176C: the reverse-splicing fitness was found to be 0.00816. As to C82A A111G A120G A145G C150G U176G, the reverse-splicing fitness is 0.00568. Then C82G A111C A145U C150G C169U U176A, with 0.00811; and C82U A111G A145U C150G U176C, with 0.0255; and C150G C169A, with 0.02. Under A111C A120C A145C C150U C169A stands 0.00837; under A145U C150U C169U U176G, 0.0111. As for C82U A111G A120C C150U C169G, the reverse-splicing fitness turned out to be 0.00986.

In the case of A111C A120U C169A, the reverse-splicing fitness was determined as 0.00479.

On to C82G A111U A120U A145G C150U U176C, for which the reverse-splicing fitness was 0.0151. Under C82U A111C A120G A145G C150G C169A U176G stands 0.00775; under C82A A120U A145U C169A, 0.00202; under C82U A111G A120U A145U C169A U176A, 0.00208. Then C82A A111U A120G A145U C150G C169U U176C, with 0.0125; and C82A A111U A120C A145U C150G U176A, with 0.00752.

Regarding C82A A111U A120C A145U C150G U176C, the reverse-splicing fitness was 0.00808. A120C A145U C169G U176A: the reverse-splicing fitness is 0.00826.

Turning to C82A A111U A145G C150G C169G U176A, the reverse-splicing fitness was found to be 0.0117. Consider C82U A111U A120C A145U C150G U176C, for which the reverse-splicing fitness stood at 0.00709. Then C82U A111U A120C A145U C150G U176G, with 0.00331; and A120C A145C C150A C169A, with 0.00701; and A111C A120C C150U, with 0.362. Then C82G A111C A120G C150G C169G, with 0.00781.

Regarding A111G A120G A145U C150G C169G U176G, the reverse-splicing fitness amounted to 0.00457. As for C82A A111G A120C C169U, the reverse-splicing fitness came out at 0.0139.
